Data on two substances can be found in patent publication US6585979.

The target in assay [1] is MN-rgp120 (herpes simplex virus type 1; HIV-1, MN strain). Put plainly: capture ELISA, MAb at 2 ug/ml (reference).
The target in assay [2] is rgp120 from breakthrough virus clone C11.5 (herpes simplex virus type 1; HIV-1, breakthrough virus of vaccinee C11). Put plainly: capture ELISA, MAb at 2 ug/ml.
In assay [3] the target is rgp120 from breakthrough virus clone C7.2 (herpes simplex virus type 1; HIV-1, breakthrough virus of vaccinee C7). As to the kind of experiment: capture ELISA, MAb at 2 ug/ml. (In general: ELISA stands for enzyme-linked immunosorbent assay.)
The target in assay [4] is rgp120 from breakthrough virus clone C11.7 (herpes simplex virus type 1; HIV-1, breakthrough virus of vaccinee C11). As to the kind of experiment: capture ELISA, MAb at 2 ug/ml.
Assay [5] deals with rgp120 from breakthrough virus clone C15.2 (herpes simplex virus type 1; HIV-1, breakthrough virus of vaccinee C15). As to the kind of experiment: capture ELISA, MAb at 2 ug/ml.
For assay [6], the target named is rgp120 from breakthrough virus clone C10.7 (herpes simplex virus type 1; HIV-1, breakthrough virus of vaccinee C10). As to the kind of experiment: capture ELISA, MAb at 2 ug/ml.
Assay [7] addresses rgp120 from breakthrough virus clone C8.6 (herpes simplex virus type 1; HIV-1, breakthrough virus of vaccinee C8). As to the kind of experiment: capture ELISA, MAb at 2 ug/ml.
In assay [8] the target is rgp120 from breakthrough virus clone C10.5 (herpes simplex virus type 1; HIV-1, breakthrough virus of vaccinee C10). As to the kind of experiment: capture ELISA, MAb at 2 ug/ml.
Assay [9] deals with rgp120 from breakthrough virus clone C15.3 (herpes simplex virus type 1; HIV-1, breakthrough virus of vaccinee C15). Put plainly: capture ELISA, MAb at 2 ug/ml.
Assay [10] addresses rgp120 from breakthrough virus clone C6.1 (herpes simplex virus type 1; HIV-1, breakthrough virus of vaccinee C6). Put plainly: capture ELISA, MAb at 2 ug/ml.
For assay [11], the target named is rgp120 from breakthrough virus clone C17.1 (herpes simplex virus type 1; HIV-1, breakthrough virus of vaccinee C17). Put plainly: capture ELISA, MAb at 2 ug/ml.
The target of assay [12] is rgp120 from breakthrough virus clone C17.3 (herpes simplex virus type 1; HIV-1, breakthrough virus of vaccinee C17). As to the kind of experiment: capture ELISA, MAb at 2 ug/ml.
Assay [13] addresses rgp120 from breakthrough virus clone C6.5 (herpes simplex virus type 1; HIV-1, breakthrough virus of vaccinee C6). Put plainly: capture ELISA, MAb at 2 ug/ml.
Assay [14] has as its target rgp120 from breakthrough virus clone C8.3 (herpes simplex virus type 1; HIV-1, breakthrough virus of vaccinee C8). As to the kind of experiment: capture ELISA, MAb at 2 ug/ml.
Assay [15] deals with MN-rgp120 (herpes simplex virus type 1; HIV-1, MN strain). As to the kind of experiment: capture ELISA (FIG. 5C).

As for MAb 15e (antibody), the relative reactivity (OD ratio to MN-rgp120) in assay [1] was 1; in assay [2] it was 0.17; in [3] it was 0.71; in [4], 0.17; in assay [5] it was 0.92; in assay [6], 0.5. For the same substance, the relative reactivity (OD ratio to MN-rgp120) in assay [7] was found to be 0.29; in assay [8], 0.46; in assay [9], 0.63; in assay [10], 0.17; in assay [11] it was 0.33; in assay [12] it was 0.33. Besides, the relative reactivity (OD ratio to MN-rgp120) in [13] stood at 0.75; in assay [14], 0.38.

Substance MAb 50.1 (antibody) yielded a fold greater binding than to any of the breakthrough virus envelope proteins in assay [15] of 10 fold. Besides, the relative reactivity (OD ratio to MN-rgp120) in assay [1] was 1; in assay [2], 0; in assay [3], 0.6; in assay [4] it was 0; in assay [5], 0.47; in assay [6], 0.48. Further, the relative reactivity (OD ratio to MN-rgp120) came out at 0.34 in [7]; 0.4 in assay [8]; 0.37 in assay [9]; 0.37 in [10]; 0.52 in assay [11]; 0.56 in assay [12]. Moreover, the results for the relative reactivity (OD ratio to MN-rgp120) in [13] and in [14] were 0.33 and 0.37, respectively.
